The target of one assay is CXCR1 (UniProt P25024). As to the kind of experiment: cell-based or functional assay.
For another assay, the target named is Kv1.3 (human) (UniProt P22001). As to the kind of experiment: cell-based or functional assay.

Numbering of substitutions follows the chain as printed. Names may count otherwise. “And” between values parts separate entries of the source, which are not always exact repeats. Equal entries are not always repeated.

Chain of Kv1.3 (human) (P22001 whole entry): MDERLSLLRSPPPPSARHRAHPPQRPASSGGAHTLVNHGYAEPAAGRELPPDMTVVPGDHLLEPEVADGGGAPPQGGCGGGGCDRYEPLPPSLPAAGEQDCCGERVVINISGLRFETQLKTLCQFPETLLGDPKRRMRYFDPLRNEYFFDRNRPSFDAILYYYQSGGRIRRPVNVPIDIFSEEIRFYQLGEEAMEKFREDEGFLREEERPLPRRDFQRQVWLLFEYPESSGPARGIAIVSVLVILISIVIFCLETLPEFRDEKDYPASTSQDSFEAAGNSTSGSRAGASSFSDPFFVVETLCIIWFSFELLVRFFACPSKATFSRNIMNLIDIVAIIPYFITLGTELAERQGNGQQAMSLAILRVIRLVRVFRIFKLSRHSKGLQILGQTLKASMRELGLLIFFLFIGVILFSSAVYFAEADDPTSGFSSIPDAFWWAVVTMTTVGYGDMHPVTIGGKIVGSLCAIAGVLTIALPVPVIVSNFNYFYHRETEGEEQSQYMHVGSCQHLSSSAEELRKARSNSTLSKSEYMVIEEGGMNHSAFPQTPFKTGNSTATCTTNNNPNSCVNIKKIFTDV
Chain of CXCR1 (P25024 whole entry): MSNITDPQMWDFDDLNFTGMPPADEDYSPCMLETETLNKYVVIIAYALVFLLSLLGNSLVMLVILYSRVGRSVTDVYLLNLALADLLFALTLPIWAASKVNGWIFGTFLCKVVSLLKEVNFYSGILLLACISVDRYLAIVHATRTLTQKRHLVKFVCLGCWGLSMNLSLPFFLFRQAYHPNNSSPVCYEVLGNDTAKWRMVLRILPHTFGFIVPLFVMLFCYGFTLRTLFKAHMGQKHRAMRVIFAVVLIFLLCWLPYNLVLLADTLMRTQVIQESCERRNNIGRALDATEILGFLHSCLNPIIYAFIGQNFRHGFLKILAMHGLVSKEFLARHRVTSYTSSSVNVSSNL

B1: VH4-34+CDR3-IL8_CDR1-Cow_Q5RQ6E with VL1-51 S2A, T5N, P8S, A12G, A13S, P14L, K46R, L47T, D51G, N52D, N53T (antibody)
VH: QVQLREWGAGLLKPSETLSLTCTASGFSLSDKAVGWIRQPPGKGLEWIGEINHSGSTNYNPSLKSRVTISVDTSKNQFSLKLSSVTAADTAVYYCTSVHQETKKYQSPRSAKELRCQCIKTYSKPFHPKFIKELRVIESGPHCANTEIIVKLSDGRELCLDPKENWVQRVVEKFLKRAENSGSGSYTYNYEWHVDVWGQGLLVTVSS
light: QAVLNQPSSVSGSLGQKVTISCSGSSSNIGNNYVSWYQQLPGTAPRTLIYGDTKRPSGIPDRFSGSKSGTSATLGITGLQTGDEADYYCASAEDSSSNAVFGSGTTLTVLGQPKAAPSVTLFPPSSEELQANKATLVCLISDFYPGAVTVAWKADSSPVKAGVETTTPSKQSNNKYAASSYLSLTPEQWKSHRSYSCQVTHEGSTVEKTVAPTECS
Take B1: in the assay with CXCR1, the luminescence at 0.1 nM IL-8 domains stood at 4180, the luminescence at 0.4 nM IL-8 domains was 5190, the luminescence at 0.5 nM IL-8 domains was 6620 and the luminescence at 1.6 nM IL-8 domains was determined as 6410. In the assay with CXCR1, this molecule yielded a luminescence at 2.2 nM IL-8 domains of 13500, a luminescence at 6.25 nM IL-8 domains of 10500, a luminescence at 9.9 nM IL-8 domains of 21900 and a luminescence at 25 nM IL-8 domains of 14600. Besides, in the assay with CXCR1, the luminescence at 44 nM IL-8 domains stood at 24000, the luminescence at 100 nM IL-8 domains was 18000 and the luminescence at 200 nM IL-8 domains was found to be 25000.

B2: VH4-34+CDR3-IL8_CDR1-G31DY32K_CDR2-E50S with VL1-51 S2A, T5N, P8S, A12G, A13S, P14L, K46R, L47T, D51G, N52D, N53T (antibody)
VH: QVQLQQWGAGLLKPSETLSLTCAVYGGSFSDKYWSWIRQPPGKGLEWIGSINHSGSTNYNPSLKSRVTISVDTSKNQFSLKLSSVTAADTAVYYCTSVHQETKKYQSPRSAKELRCQCIKTYSKPFHPKFIKELRVIESGPHCANTEIIVKLSDGRELCLDPKENWVQRVVEKFLKRAENSGSGSYTYNYEWHVDVWGQGLLVTVSSAS
light: B1 light
In the assay with CXCR1, B2 registered a luminescence at 0.4 nM IL-8 domains of 5420, a luminescence at 1.6 nM IL-8 domains of 5710, a luminescence at 6.25 nM IL-8 domains of 7160 and a luminescence at 25 nM IL-8 domains of 11200. In addition, the luminescence at 100 nM IL-8 domains with CXCR1 was 15500.

B3: VH4-34+CDR3-IL8_CDR1-Cow_CDR2-Cow with VL1-51 S2A, T5N, P8S, A12G, A13S, P14L, K46R, L47T, D51G, N52D, N53T (antibody)
VH: QVQLQQWGAGLLKPSETLSLTCTASGFSLSDKAVGWIRQPPGKGLEWLGSIDTGGNTGYNPSLKSRVTISVDTSKNQFSLKLSSVTAADTAVYYCTSVHQETKKYQSPRSAKELRCQCIKTYSKPFHPKFIKELRVIESGPHCANTEIIVKLSDGRELCLDPKENWVQRVVEKFLKRAENSGSGSYTYNYEWHVDVWGQGLLVTVSSAS
light: B1 light
In the assay with CXCR1, B3 showed a luminescence at 0.4 nM IL-8 domains of 6310, a luminescence at 1.6 nM IL-8 domains of 7400, a luminescence at 6.25 nM IL-8 domains of 10200 and a luminescence at 25 nM IL-8 domains of 15400. In addition, the luminescence at 100 nM IL-8 domains in the assay with CXCR1 was 21600.

B4: VH4-34+CDR3-IL8_CDR1-G31DY32K_CDR2-E50S_Q5RQ6E with VL1-51 S2A, T5N, P8S, A12G, A13S, P14L, K46R, L47T, D51G, N52D, N53T (antibody)
VH: B1 VH with T23A, A24V, S25Y, F27G, L29F, A33Y, V34W, G35S, E50S
light: B1 light
In the assay with CXCR1, B4 displayed a luminescence at 0.1 nM IL-8 domains of 4060, a luminescence at 0.4 nM IL-8 domains of 6190, a luminescence at 0.5 nM IL-8 domains of 5300 and a luminescence at 1.6 nM IL-8 domains of 8160. In the assay with CXCR1, this molecule displayed a luminescence at 2.2 nM IL-8 domains of 10300, a luminescence at 6.25 nM IL-8 domains of 13500, a luminescence at 9.9 nM IL-8 domains of 17100 and a luminescence at 25 nM IL-8 domains of 21000. For the same molecule, in the assay with CXCR1, the luminescence at 44 nM IL-8 domains was 23300, the luminescence at 100 nM IL-8 domains is 25900 and the luminescence at 200 nM IL-8 domains is 22300.

B5: VH4-34 MutE 3xGGS NoKnob IgG (antibody, V domains shown)
VH: QVQLREWGAGLLKPSETLSLTCAVYGGSFSDKYWSWIRQPPGKGLEWIGSINHSGSTNYNPSLKSRVTISVDTSKNQFSLKLSSVTAADTAVYYCTSVHQETKKYQSGGSGGSGGSSYTYNYEWHVDVWGQGLLVTVSS
VL: QAVLNQPSSVSGSLGQKVTISCSGSSSNIGNNYVSWYQQLPGTAPRTLIYGDTKRPSGIPDRFSGSKSGTSATLGITGLQTGDEADYYCASAEDSSSNAVFGSGTTLTVLG
For B5, in the assay with Kv1.3 (human), the IL-2 ELISA (A450), Donor 1, [IgG] 0.01 nM is 2.18 A450 and 2.23 A450; the IL-2 ELISA (A450), Donor 1, [IgG] 0.75 nM was 2.19 A450 and 2.17 A450; the IL-2 ELISA (A450), Donor 1, [IgG] 68 nM is 1.42 A450 and 1.31 A450; the IL-2 ELISA (A450), Donor 2, [IgG] 0.01 nM was determined as 1.75 A450. In the assay with Kv1.3 (human), the IL-2 ELISA (A450), Donor 2, [IgG] 0.75 nM is 1.61 A450 and 1.42 A450; the IL-2 ELISA (A450), Donor 2, [IgG] 68 nM is 1.32 A450 and 0.934 A450; the IL-17 ELISA (A450), Donor 1, 0.00 nM IgG is 0 A450; the IL-17 ELISA (A450), Donor 1, 0.02 nM IgG is 1.35 A450. In the assay with Kv1.3 (human), this molecule registered an IL-17 ELISA (A450), Donor 1, 0.08 nM IgG of 1.34 A450; an IL-17 ELISA (A450), Donor 1, 0.34 nM IgG of 1.27 A450; an IL-17 ELISA (A450), Donor 1, 1.54 nM IgG of 1.18 A450; an IL-17 ELISA (A450), Donor 1, 6.9 nM IgG of 0.828 A450. Further, in the assay with Kv1.3 (human), the IL-17 ELISA (A450), Donor 1, 31 nM IgG was 0.453 A450; the IL-17 ELISA (A450), Donor 1, 140 nM IgG came to 0.247 A450; the IL-17 ELISA (A450), Donor 2, 0.00 nM IgG turned out to be 0 A450; the IL-17 ELISA (A450), Donor 2, 0.02 nM IgG was 0.959 A450. In the assay with Kv1.3 (human), this molecule displayed an IL-17 ELISA (A450), Donor 2, 0.08 nM IgG of 0.777 A450; an IL-17 ELISA (A450), Donor 2, 0.34 nM IgG of 0.82 A450; an IL-17 ELISA (A450), Donor 2, 1.54 nM IgG of 0.785 A450; an IL-17 ELISA (A450), Donor 2, 6.9 nM IgG of 0.641 A450. Also, in the assay with Kv1.3 (human), the IL-17 ELISA (A450), Donor 2, 31 nM IgG was 0.364 A450; the IL-17 ELISA (A450), Donor 2, 140 nM IgG came out at 0.096 A450; the TNF-α ELISA (A450), Donor 1, 0.00 nM IgG was 0 A450; the TNF-α ELISA (A450), Donor 1, 0.02 nM IgG was 1.52 A450. Further, in the assay with Kv1.3 (human), the TNF-α ELISA (A450), Donor 1, 0.08 nM IgG worked out at 1.45 A450; the TNF-α ELISA (A450), Donor 1, 0.34 nM IgG was determined as 1.42 A450; the TNF-α ELISA (A450), Donor 1, 1.54 nM IgG was determined as 1.33 A450; the TNF-α ELISA (A450), Donor 1, 6.9 nM IgG stood at 1.1 A450. For the same molecule, in the assay with Kv1.3 (human), the TNF-α ELISA (A450), Donor 1, 31 nM IgG was 0.808 A450; the TNF-α ELISA (A450), Donor 1, 140 nM IgG is 0.402 A450; the TNF-α ELISA (A450), Donor 1, [IgG] 0.01 nM was 1.91 A450 and 1.88 A450; the TNF-α ELISA (A450), Donor 1, [IgG] 0.75 nM was 1.76 A450 and 1.67 A450. In the assay with Kv1.3 (human), the TNF-α ELISA (A450), Donor 1, [IgG] 68 nM was 1.12 A450 and 1.08 A450; the TNF-α ELISA (A450), Donor 2, 0.00 nM IgG worked out at 0 A450; the TNF-α ELISA (A450), Donor 2, 0.02 nM IgG was 1.56 A450; the TNF-α ELISA (A450), Donor 2, 0.08 nM IgG was determined as 1.42 A450. Moreover, in the assay with Kv1.3 (human), the TNF-α ELISA (A450), Donor 2, 0.34 nM IgG worked out at 1.55 A450; the TNF-α ELISA (A450), Donor 2, 1.54 nM IgG came out at 1.29 A450; the TNF-α ELISA (A450), Donor 2, 6.9 nM IgG was 0.916 A450; the TNF-α ELISA (A450), Donor 2, 31 nM IgG was 0.438 A450. In the assay with Kv1.3 (human), the TNF-α ELISA (A450), Donor 2, 140 nM IgG worked out at 0.167 A450; the TNF-α ELISA (A450), Donor 2, [IgG] 0.01 nM was 2.23 A450 and 2.1 A450; the TNF-α ELISA (A450), Donor 2, [IgG] 0.75 nM was 2.1 A450 and 1.88 A450; the TNF-α ELISA (A450), Donor 2, [IgG] 68 nM was 1.8 A450 and 1.32 A450.

B6: VH4-34 MutE 3xGGS NoKnob (antibody, V domains shown)
VH: B5 VH
VL: B5 VL
As to B6, in the assay with Kv1.3 (human), the IL-2 ELISA (A450); Donor 1; 0.04 nM IgG is 0.333 A450, the IL-2 ELISA (A450); Donor 1; 0.6 nM IgG is 0.356 A450, the IL-2 ELISA (A450); Donor 1; 9.4 nM IgG is 0.371 A450 and the IL-2 ELISA (A450); Donor 1; 150 nM IgG worked out at 0.232 A450. In the assay with Kv1.3 (human), the IL-2 ELISA (A450); Donor 2; 0.04 nM IgG turned out to be 0.976 A450, the IL-2 ELISA (A450); Donor 2; 0.6 nM IgG worked out at 0.795 A450, the IL-2 ELISA (A450); Donor 2; 9.4 nM IgG came out at 0.808 A450 and the IL-2 ELISA (A450); Donor 2; 150 nM IgG worked out at 0.475 A450. In addition, in the assay with Kv1.3 (human), the TNF-α ELISA (A450); Donor 1; 0.04 nM IgG came out at 0.76 A450, the TNF-α ELISA (A450); Donor 1; 0.6 nM IgG turned out to be 0.813 A450, the TNF-α ELISA (A450); Donor 1; 9.4 nM IgG was found to be 0.821 A450 and the TNF-α ELISA (A450); Donor 1; 150 nM IgG was 0.599 A450. In the assay with Kv1.3 (human), the TNF-α ELISA (A450); Donor 2; 0.04 nM IgG stood at 0.736 A450, the TNF-α ELISA (A450); Donor 2; 0.6 nM IgG worked out at 0.631 A450, the TNF-α ELISA (A450); Donor 2; 9.4 nM IgG was 0.622 A450 and the TNF-α ELISA (A450); Donor 2; 150 nM IgG was 0.366 A450.

These data come from patent publication US20160159928A1.
